Article doi:10.1101/636423 (bioRxiv, 2019)

Biological target: the molecule itself
Experiment: native MS

B1: whole intracellular region of rat PTPRZ (rat PTPRZ-ICR) (domain or fragment)
chain: not shown
Kd: ~7 µM | stoichiometry N: 2
